Biological target: canine TNF-alpha (canine) (UniProt P51742)
Assay: cell-based or functional assay

Chain of canine TNF-alpha (canine) (P51742 77-233 limits assumed): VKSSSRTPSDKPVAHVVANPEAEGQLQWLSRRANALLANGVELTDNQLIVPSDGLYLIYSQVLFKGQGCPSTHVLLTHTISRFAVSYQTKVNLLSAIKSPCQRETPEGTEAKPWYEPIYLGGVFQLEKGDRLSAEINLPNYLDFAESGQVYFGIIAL

Substance: human TNFR-canine HCB control fusion protein (human TNFR extracellular domain fused N-terminally to canine HCB hinge-CH2-CH3) (Fc fusion)
- inhibition of canine TNF-alpha bioactivity (1 ng/ml) in 293-HEK cells with NF-kB-EGFP reporter construct pTRH1; IC50: 1 ng/ml

From patent US20150037333A1
